# T1: His-CYPJ (recombinant) (human, UniProt Q9H2H8 1-161)
# T1 chain: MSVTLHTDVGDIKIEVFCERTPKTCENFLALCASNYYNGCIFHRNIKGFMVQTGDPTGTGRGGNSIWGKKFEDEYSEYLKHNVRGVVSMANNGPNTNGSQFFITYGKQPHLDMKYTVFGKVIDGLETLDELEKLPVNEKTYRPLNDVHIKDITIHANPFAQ
# T2: His-CYPJ (recombinant) (human, UniProt Q9H2H8 1-161)
# T2 construct: cyclophilin J (CYPJ, PPIL3), human; also called recombinant His-CYPJ
# T2 sequence (looked up): T1 chain
# B1: TAB3-NZF peptide (peptide)
# peptide: WNCDSCTFLNHPALNRCEQCEMP
# notes: peptide from the NZF domain of TAB3; limits counted from C706 named in the introduction; source: synthetic peptide (DgPeptides)
# B2: TAB2-NZF peptide (peptide)
# peptide: QWNCTACTFLNHPALIRCEQCEMP
# notes: peptide from the NZF domain of TAB2; limits counted from C670 and C673 named in the introduction; source: synthetic peptide (DgPeptides)
# Key:
# [1] = target: T1, His-CYPJ (recombinant); assay: ITC
# [2] = target: T2, His-CYPJ (recombinant); assay: ITC; synthetic NZF peptides and His-CYPJ; MicroCal iTC200, standard procedure; conditions: both partners purified
Binder,Ka [1],binding result [2]
B1,1030 M⁻¹,binds
B2,283 M⁻¹,binds

# Reference: paper PMC6197184, “Cyclophilin J limits inflammation through the blockage of ubiquitin chain sensing” (Nature Communications, 2018)
